T1: human GFRα-2-IgGFc fusion protein (human, UniProt O00451 20-431)
T1 construct: range 20-431; not shown: 243 amino acid residue COOH-terminal human IgG1-Fc fusion domain from vector Signal pIg plus (R&D Systems); exact limits
T1 sequence (looked up): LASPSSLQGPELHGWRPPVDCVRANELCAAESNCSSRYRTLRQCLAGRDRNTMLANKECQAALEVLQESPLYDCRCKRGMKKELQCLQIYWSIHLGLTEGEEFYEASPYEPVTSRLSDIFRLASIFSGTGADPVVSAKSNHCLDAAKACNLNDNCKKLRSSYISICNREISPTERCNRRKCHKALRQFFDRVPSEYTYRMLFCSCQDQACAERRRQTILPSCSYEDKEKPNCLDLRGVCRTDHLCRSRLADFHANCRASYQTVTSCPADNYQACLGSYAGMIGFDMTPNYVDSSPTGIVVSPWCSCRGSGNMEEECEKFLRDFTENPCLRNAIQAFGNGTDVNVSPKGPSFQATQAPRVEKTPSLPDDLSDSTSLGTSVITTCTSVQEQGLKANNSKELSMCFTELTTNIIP

B1: rat GFRα-4 variant A-IgGFc fusion protein (Fc fusion)
chain: ASSTEGNRCVEAAEACTADEQCQQLRSEYVAQCLGRAGWRGPGSCVRSRCRRALRRFFARGPPALTHALLFCGCEGPACAERRRQTFAPACAFSGPQLAPPSCLKPLDRCERSRRCRPRLFAFQASCAPAPGSRDGCPEEGGPRCLRAYAGLVGTVVTPNYLDNVSARVAPWCGCEASGNRREECEAFRKLFTRNPCLDGAIQAFDSSQPSVLQDQWNPYQNAG
notes: also called rat GFRα-4-IgGFc; rat GFRα4-IgGFc; not shown: The 243-residue COOH-terminal human IgG1-Fc fusion domain from the vector Signal pIg plus (R&D Systems)
B2: NH2-terminally 6His-tagged recombinant human enovin/artemin (ligand)
chain: HHHHHHAGGPGSRARAAGARGCRLRSQLVPVRALGLGHRSDELVRFRFCSGSCRRARSPHDLSLASLLGAGALRPPPGSRPVSQPCCRPTRYEAVSFMDVNSTWRTVDRLSATACGCLG
notes: Immobilised on a CM5 chip by amine coupling; also called EVN/ART; EVN/ARTN
B3: NH2-terminally 6His-tagged recombinant rat persephin (ligand)
chain: HHHHHHALPGLCRLWSLTLPVAELGLGYASEEKIIFRYCAGSCPQEVRTQHSLVLARLRGQGRAHGRPCCQPTSYADVTFLDDHHHWQQLPQLSAAACGCGG
notes: Immobilised on a CM5 chip by amine coupling; Produced as described in Creedon et al., 1997; also called PSP; rat PSP
B4: recombinant human GDNF (ligand, UniProt P39905 78-211, looked up)
chain: SPDKQMAVLPRRERNRQAAAANPENSRGKGRRGQRGKNRGCVLTAIHLNVTDLGLGYETKEELIFRYCSGSCDAAETTYDKILKNLSRNRRLVSDKVGQACCRPIAFDDDLSFLDDNLVYHILRKHSAKRCGCI
notes: Immobilised on a CM5 chip by amine coupling; also called glial cell-line derived neurotrophic factor
B5: NH2-terminally 6His-tagged recombinant human neurturin (ligand)
chain: HHHHHHARLGARPCGLRELEVRVSELGLGYASDETVLFRYCAGACEAAARVYDLGLRRLRQRRRLRRERVRAQPCCRPTAYEDEVSFLDAHSRYHTVHELSARECACV
notes: Immobilised on a CM5 chip by amine coupling; also called NTN

Experiments:
[1] = biological target: B3; test: SPR (BIACORE 3000), persephin immobilised
Experimental: Bound protein was eluted with 0.1 M Na-citrate, pH 3.0 and collected into 1 M Tris buffer, pH 8.4 (dilution ratio 1:6). Protein concentration was estimated by absorbance at 280 nm using an extinction coefficient of 1.5. Surface plasmon resonance (SPR) U.S. Ser. No. 10/019,337, filed Dec. 19, 2001 experiments were performed at 25° C. using a BIACORE 3000 instrument (Biacore AB, Uppsala, Sweden). Sensor chip CM5, the amine coupling kit and buffers used were also obtained from Biacore AB. Recombinant PSP, NTN, EVN/ART and GDNF were used as immobilised ligands. Recombinant human GDNF was obtained from R&D Systems Europe Ltd. (Abingdon, UK). NH2-terminally 6His-tagged (SEQ ID NO: 48) recombinant human NTN, rat PSP and human EVN/ART were produced in *E. coli* as described previously (Creedon et al., 1997). […] The association of the GFRα receptors to the immobilised ligands was monitored for 3 min and the dissociation for 1 min, followed by regeneration with 10 mM glycine buffer. […] Data were analyzed using a global analysis with the BIACORE evaluation software (version 3.0.1). Global analysis calculates the association rate (k_a) and dissociation rate (k_d) simultaneously and the apparent equilibrium dissociation constant (K_D) is then calculated as k_d/k_a. […] Specific binding to PSP could be detected with both rat and chicken GFRα-4-IgGFc fusion proteins.

[2] = biological target: B1; test: SPR (BIACORE 3000), ligand immobilised, GFRα-IgGFc in solution
Experimental: (§1) Bound protein was eluted with 0.1 M Na-citrate, pH 3.0 and collected into 1 M Tris buffer, pH 8.4 (dilution ratio 1:6). Protein concentration was estimated by absorbance at 280 nm using an extinction coefficient of 1.5. Surface plasmon resonance (SPR) U.S. Ser. No. 10/019,337, filed Dec. 19, 2001 experiments were performed at 25° C. using a BIACORE 3000 instrument (Biacore AB, Uppsala, Sweden). Sensor chip CM5, the amine coupling kit and buffers used were also obtained from Biacore AB. Recombinant PSP, NTN, EVN/ART and GDNF were used as immobilised ligands. Recombinant human GDNF was obtained from R&D Systems Europe Ltd. (Abingdon, UK). NH2-terminally 6His-tagged (SEQ ID NO: 48) recombinant human NTN, rat PSP and human EVN/ART were produced in *E. coli* as described previously (Creedon et al., 1997). The carboxylated matrix of a CM5 sensor chip was first activated with a 1:1 mixture of 400 mM N-ethyl-N'-(3-dimethylaminopropyl)-carbodiimide and 100 mM N-hydroxy-succinimide for 10 min. Recombinant neurotrophic factors were applied onto the activated surface in 10 mM sodium acetate buffer, pH 4.5 at a flow rate of 5 μl/min. Unreacted carboxyl groups were blocked with 1 M ethanolamine-HCl. For binding experiments, soluble GFRα-IgGFc fusion proteins were superfused using the kinject program at 30 μl/min. Concentrations of GFRα-IgGFc used in kinetic experiments were between 1 and 100 nM in Hepes buffered saline (150 mM NaCl, 3.5 mM EDTA sodium salt, 0.005% polysorbate 20, 10 mM Hepes, pH 7.4). The association of the GFRα receptors to the immobilised ligands was monitored for 3 min and the dissociation for 1 min, followed by regeneration with 10 mM glycine buffer. Dissociation was initiated by superfusion with Hepes buffered saline. To improve the quality of sensor data, double referencing was used (Myszka, 1999). Data were analyzed using a global analysis with the BIACORE evaluation software (version 3.0.1). Global analysis calculates the association rate (k_a) and dissociation rate (k_d) simultaneously and the apparent equilibrium dissociation constant (K_D) is then calculated as k_d/k_a. A simple 1:1 Langmuir model was used to fit the data. Specific binding to PSP could be detected with both rat and chicken GFRα-4-IgGFc fusion proteins.

[3] = biological target: T2, chicken GFRα-4-IgGFc fusion protein (chicken; human, UniProt P01857-1 99-330 = IgG part, limits assumed); test: as above
T2 construct: domain: human IgG1-Fc fusion domain; also called chicken GFR-4-IgGFc
T2 sequence (P01857 other isoform, or with tags, fused parts or gaps limits assumed): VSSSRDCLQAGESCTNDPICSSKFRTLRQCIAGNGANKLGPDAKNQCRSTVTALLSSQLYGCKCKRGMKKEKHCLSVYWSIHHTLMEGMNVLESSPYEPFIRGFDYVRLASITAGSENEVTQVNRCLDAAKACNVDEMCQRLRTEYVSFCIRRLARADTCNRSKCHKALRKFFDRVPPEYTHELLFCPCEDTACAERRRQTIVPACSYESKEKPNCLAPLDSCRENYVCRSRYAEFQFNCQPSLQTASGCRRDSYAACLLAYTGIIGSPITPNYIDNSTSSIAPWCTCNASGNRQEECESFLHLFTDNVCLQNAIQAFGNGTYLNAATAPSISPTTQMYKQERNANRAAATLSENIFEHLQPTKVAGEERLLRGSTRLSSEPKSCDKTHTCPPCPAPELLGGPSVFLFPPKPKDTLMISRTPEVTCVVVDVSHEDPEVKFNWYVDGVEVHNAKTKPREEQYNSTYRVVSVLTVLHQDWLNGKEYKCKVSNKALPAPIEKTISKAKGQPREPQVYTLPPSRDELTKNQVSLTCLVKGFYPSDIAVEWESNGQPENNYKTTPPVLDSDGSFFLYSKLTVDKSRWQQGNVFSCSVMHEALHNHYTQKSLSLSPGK
Experimental: as §1

[4] = biological target: B1; test: SPR (BIACORE 3000), persephin immobilised, GFRα-4-IgGFc in solution, 1:1 Langmuir global fit, n=3
Experimental: as §1

[5] = biological target: T2, chicken GFRα-4-IgGFc fusion protein; test: as above
Experimental: as §1

[6] = biological target: T1, human GFRα-2-IgGFc fusion protein; test: SPR (BIACORE 3000), NTN immobilised
Experimental: GFRα-IgGFc fusion proteins were purified from the medium of permanently or transiently transfected CHO cells by protein A chromatography. Bound protein was eluted with 0.1 M Na-citrate, pH 3.0 and collected into 1 M Tris buffer, pH 8.4 (dilution ratio 1:6). Protein concentration was estimated by absorbance at 280 nm using an extinction coefficient of 1.5. Surface plasmon resonance (SPR) U.S. Ser. No. 10/019,337, filed Dec. 19, 2001 experiments were performed at 25° C. using a BIACORE 3000 instrument (Biacore AB, Uppsala, Sweden). Sensor chip CM5, the amine coupling kit and buffers used were also obtained from Biacore AB. Recombinant PSP, NTN, EVN/ART and GDNF were used as immobilised ligands. Recombinant human GDNF was obtained from R&D Systems Europe Ltd. (Abingdon, UK). NH2-terminally 6His-tagged (SEQ ID NO: 48) recombinant human NTN, rat PSP and human EVN/ART were produced in *E. coli* as described previously (Creedon et al., 1997). […] The association of the GFRα receptors to the immobilised ligands was monitored for 3 min and the dissociation for 1 min, followed by regeneration with 10 mM glycine buffer. […] Data were analyzed using a global analysis with the BIACORE evaluation software (version 3.0.1). Global analysis calculates the association rate (k_a) and dissociation rate (k_d) simultaneously and the apparent equilibrium dissociation constant (K_D) is then calculated as k_d/k_a. […]

## B1
[1]
  fold lower binding level than chicken GFRα-4-IgGFc: ~20 fold

## B2
[2]
  binding result: no binding
[3]
  binding result: no binding

## B3
[4]
  Kd: 5.9 nM
  koff: 0.0012 s⁻¹
  kon: ~270000 M⁻¹ s⁻¹
[5]
  Kd: 5.4 nM
  koff: 0.00088 s⁻¹
  kon: ~230000 M⁻¹ s⁻¹

## B4
[2]
  binding result: no binding
[3]
  binding result: no binding

## B5
[6]
  binding result: binds
[2]
  binding result: no binding
[3]
  binding result: no binding

Reference: patent US7022818 (Janssen / Centocor, dated 2006)
